Assay [1] deals with T1, Recombinant human IL-17A/F heterodimer (human, UniProt Q16552 24-155; Q96PD4 31-163).
T1 construct: also called IL-17A/F (GNE)
Put plainly: screening of cross-reactive clones; assay not given.

Assay [2] concerns the target T2, Human IL-17F (R&D Systems, cat #1335-IL-025/CF) (human, UniProt Q96PD4 31-163).
T2 construct: That entry is derived from the native cDNA and may include the signal peptide; also called rhIL-17F; recombinant human IL-17F
T2 sequence: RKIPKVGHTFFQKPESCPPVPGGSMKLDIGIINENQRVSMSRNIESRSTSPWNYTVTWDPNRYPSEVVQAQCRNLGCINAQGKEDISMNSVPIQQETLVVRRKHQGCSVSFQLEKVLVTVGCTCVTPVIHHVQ
The description is as above.

For assay [3], the target named is T3, Human IL-17F dimer (baculovirus/Hi5-expressed, His-tag removed by thrombin) (human, UniProt Q96PD4 31-163, limits assumed).
T3 construct: The N-terminal His-tag and thrombin site were introduced and then cleaved off; also called purified recombinant IL17F
T3 sequence: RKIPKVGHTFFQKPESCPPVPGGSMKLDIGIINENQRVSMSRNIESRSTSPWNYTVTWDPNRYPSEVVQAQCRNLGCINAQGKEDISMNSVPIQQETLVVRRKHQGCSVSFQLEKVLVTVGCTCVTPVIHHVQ
Put plainly: X-ray crystal structure, content of the asymmetric unit.

The target in assay [4] is T2, Human IL-17F (R&D Systems, cat …). Put plainly: BIAcore SPR, IgG captured by anti-human Fc.

T1 sequence (Q16552 24-155 limits assumed, one chain of several): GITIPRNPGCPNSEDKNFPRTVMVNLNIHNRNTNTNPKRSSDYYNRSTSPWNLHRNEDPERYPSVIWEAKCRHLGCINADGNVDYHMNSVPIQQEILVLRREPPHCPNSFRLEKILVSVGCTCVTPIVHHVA

B1: YW278.15 (antibody, V domains shown)
VH: EVQLVESGGGLVQPGGSLRLSCAASGFTFTDYDISWVRQAPGKGLEWVASISPSDGYTYYADSVKGRFTISADTSKNTAYLQMNSLRAEDTAVYYCARYLYWSYVMDYWGQGTLVTVSS
VL: DIQMTQSPSSLSASVGDRVTITCRASQDVSTAVAWYQQKPGKAPKLLIYSASFLYSGVPSRFSGSGSGTDFTLTISSLQPEDFATYYCQQSYTTPPTFGQGTKVEIKR
With B1, the binding result in assay [1] and in assay [2] was “binds” each time.

B2: Fab fragment of YW 278.15.18.C55S (Fab, V domains shown)
VH: EVQLVESGGGLVQPGGSLRLSCAASGFTFTDYDISWVRQAPGKGLEWVASISPPDSYTYYADSVKGRFTISADTSKNTAYLQMNSLRAEDTAVYYCARYLYWSYVMDYWGQGTLVTVSS
VL: DIQMTQSPSSLSASVGDRVTITCRASQDVSTAVAWYQQKPGKAPKLLIYSASFLYSGVPSRFSGSGSGTDFTLTISSLQPEDFATYYCQQSYTAKLTFGQGTKVEIKR
notes: also called YW278.15.18C55S Fab
Consider B2, for which the binding result in assay [3] was “binds”.

B3: YW278.15.18 (antibody, V domains shown)
VH: EVQLVESGGGLVQPGGSLRLSCAASGFTFTDYDISWVRQAPGKGLEWVASISPPDCYTYYADSVKGRFTISADTSKNTAYLQMNSLRAEDTAVYYCARYLYWSYVMDYWGQGTLVTVSS
VL: DIQMTQSPSSLSASVGDRVTITCRASQDVSTAVAWYQQKPGKAPKLLIYSASFLYSGVPSRFSGSGSGTDFTLTISSLQPEDFATYYCQQSYTAKLTFGQGTKVEIKR
Regarding B3, the binding result in assay [4] is reported as “binds”.

B4: YW278.15.2 (antibody, V domains shown)
VH: EVQLVESGGGLVQPGGSLRLSCAASGFSFIDYDISWVRQAPGKGLEWVASISPYDGYTYYADSVKGRFTISADTSKNTAYLQMNSLRAEDTAVYYCARYLYWSYVMDYWGQGTLVTVSS
VL: DIQMTQSPSSLSASVGDRVTITCRASQDVSTAVAWYQQKPGKAPKLLIYSASFLYSGVPSRFSGSGSGTDFTLTISSLQPEDFATYYCQQYYIYPATFGQGTKVEIKR
Turning to B4, the binding result in assay [4] is “binds”.

Source of the values: patent publication US20100055103A1 (Genentech, published 2010).
